Measurements taken from publication doi:10.1101/485656 (bioRxiv, 2018).

Tests used:
FtsA (Escherichia coli) [1] = target: FtsA (Escherichia coli) (UniProt P0ABH0); assay: TIRF colocalisation on supported lipid bilayers
[2] = target: FtsZ/FtsA co-filaments on a supported lipid bilayer (Escherichia coli) (UniProt P0ABH0); assay: TIRF colocalisation on supported lipid bilayers
[3] = target: FtsZ/FtsA co-filaments on a supported lipid bilayer (Escherichia coli) (UniProt P0ABH0); assay: single-molecule tracking by TIRF on supported lipid bilayers
FtsA (Escherichia coli) [4] = target: FtsA (Escherichia coli) (UniProt P0ABH0); assay: MST
AUC = target: the molecule itself; assay: AUC

FtsN_(cyto)His (peptide) was tested, and the Pearson correlation coefficient of colocalisation with FtsA (FtsA (Escherichia coli) [1]) was 0.8, the Pearson correlation coefficient of colocalisation with FtsZ [2] was 0.86 and the fold lower colocalization efficiency with GMPCPP against GTP [2] was 1.5 fold. It also gave an average duration of confinement [3] of 0.41 s, a frequency of confinement events, fold over the DDEE mutant [3] of 3 fold and a weight of the population with short displacements, fold over FtsN (cyto-DDEE)His [3] of 3 fold. It also gave a weighted contribution of the confined population, fold over FtsN (cyto-DDEE)His [3] of 2 fold and a Kd (FtsA (Escherichia coli) [4]) of 324 nM.

FtsN_(cyto-D5N)His (peptide) was tested, and the Pearson correlation coefficient of colocalisation with FtsZ [2] was 0.75 and the Kd (FtsA (Escherichia coli) [4]) was 160 nM.

FtsQ_(cyto)His (peptide) showed a Pearson correlation coefficient of colocalisation with FtsZ [2] of 0.4.

FtsZ (natural protein) was tested, and the Pearson correlation coefficient of FtsA/FtsZ colocalisation (FtsA (Escherichia coli) [1]) was 0.79.

B1: full-length FtsN with a C-terminal oligohistidine tag (natural protein, Escherichia coli, UniProt P29131 1-319, looked up)
chain: MAQRDYVRRSQPAPSRRKKSTSRKKQRNLPAVSPAMVAIAAAVLVTFIGGLYFITHHKKEESETLQSQKVTGNGLPPKPEERWRYIKELESRQPGVRAPTEPSAGGEVKTPEQLTPEQRQLLEQMQADMRQQPTQLVEVPWNEQTPEQRQQTLQRQRQAQQLAEQQRLAQQSRTTEQSWQQQTRTSQAAPVQAQPRQSKPASSQQPYQDLLQTPAHTTAQSKPQQAAPVARAADAPKPTAEKKDERRWMVQCGSFRGAEQAETVRAQLAFEGFDSKITTNNGWNRVVIGPVKGKENADSTLNRLKMAGHTNCIRLAAGG
B1: binds (AUC).
